Reference: a protein production outcome set (Wang et al. 2014)

Assay: label from the status in PepcDB records
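Further: failed if final PepcDB status was selected cloned or expressed and not failed if soluble or beyond.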

Row | Sequence | protein production
1 | MKPSLIYMYNINKKQIIISLLSFIFVVAVAFVSLGNYIKQESGEVRQTIIVAFVILVYITFLAMIVIQAVSAFGKMTESTLFRLTSISGKKIVLAILLYAVIYLLIFELIGSIFLYGISMKIIKGTELYEVLFTQSVFNPLKHLFSTMLYVFNLSSILLVLLFSVASVKVFSLKKKKLKYPMVFFLFLLVTKLLGTIYGMLGGLAPAAPLIKKLVYIDESSGADVFLYPEKLMNLYSLSFSIGIFILLVYITGRIIDKKLEV | failed
2 | MKPTLFVLAAGMGSRYGSLKQLDGIGPGGDTIMDYSVYDAIRAGFGRLVFVIRHSFEKEFREKILTKYEGRIPVELVFQELDRLPEGFSCPEGREKPWGTNHAVLMGRDAIREPFAVINADDFYGRNGFEVLARKLMTLEGKQGEYCMVGYRVGNTLSESGGVSRGVCQVDEKHLLTGVVERTGIERTDGTISFRDETGKICTLAEDAPVSMNMWGFTPDYFDYSEELFINFLNAHGQEPKSEFFIPFVVNDLIRSGRASVEVLDTTARWFGVTYSDDRPGVVAKLRELTEAGEYPTKLF | not failed
3 | MKPTLFVLAAGMGSRYGSLKQLDGIGPGGDTIMDYSVYDAIRAGFGRLVFVIRHSFEKEFREKILTKYEGRIPVELVFQELDRLPEGFSCPEGREKPWGTNHAVLMGRDAIREPFAVINADDFYGRNGFEVLARKLMTLEGKQGEYCMVGYRVGNTLSESGGVSRGVCQVDEKHLLTGVVERTGIERTDGTISFRDETGKICTLAEDAPVSMNMWGFTPDYFDYSEELFINFLNAHGQEPKSEFFIPFVVNDLIRSGRASVEVLDTTARWFGVTYSDDRPGVVAKLRELTEAGEYPTKLFLEHHHHHH | not failed
4 | MKQAIGFIDSGVGGLTVVREVLKQLPHEQVYYLGDTARCPYGPRDKEEVAKFTWEMTNFLVDRGIKMLVIACNTATAAALYDIREKLDIPVIGVIQPGSRAALKATRNNKIGVLGTLGTVESMAYPTALKGLNRRVEVDSLACPKFVSVVESGEYKSAIAKKVVAESLLPLKSTKIDTVILGCTHYPLLKPIIENFMGDGVAVINSGEETASEVSALLDYHNLLDATDEEIEHRFFTTGSTQIFKDIAKDWLNMPDMTVEHIKLGK | not failed
5 | MKQFVVISGKGGTGKTSVTAGLAAVGKDMVLADCDVDAADLHLVLAPEIRERHDFISGVVASIEPEACISCGLCTTHCRYGAIPQGYAPQVAPEHCEGCGVCAHVCPTGAARLSDRRCGEWYVSDTRFGPMVHAALGIGEENSGKLVSTVRTRARELAEARDASVVLIDGSPGVGCPVIASLAGADAALAVTEPTVSALHDLERVHALARHFDVRMAVLLNKADIHPGMAERIIGYCTTHDLPLVGRFGFSPLFVQAQLEGRTLPEQDSGEWRQRFNGVWNQLLALVLEHHHHHH | failed
6 | MKQKDFFLYAVMSVFLGMQGCASSSDIKQNVGTSEIAHTKQTLQIAGLKHCNNEGNDSIHLNPDEPLTIIVHGCFSSAGRFETLADVYGLYDQQAICFEYDDRKSLEDTSGELVAALNQLSTQNPNQDLHVIGHSQGGLVARRALTSEREDQQTVTAKKVQLTTVSSPFNGIEISSHCGITPLRILSLGIVDLICYAVTGEKYQQIPPNADFIEQPGDLVASVSQHLVIKTDERNSCRKENDKGECIEDDYVFSVNEQSNNQVDDGVNTDLVTVKAGHVEIVGNGESVPTDLINILKQKEVLVDKSGVDEQKQGYLINQLYFD | failed
7 | MKQPFERILREICFMVKVEGRKVLRDFGITPAQFDILQKIYFEGPKRPGELSVLLGVAKSTVTGLVKRLEADGYLTRTPDPADRRAYFLVITRKGEEVIEKVIERRENFIEKITSDLGKEKSSKILDYLKELKGVMERNFSKQ | not failed
8 | MKQQLESFIETTKPSALVADMFFPWATESAEKLGVPRLVFHGTSFFSLCCSYNMRIHKPHKKVATSSTPFVIPGLPGDIVITEDQANVAKEETPMGKFMKEVRESETNSFGVLVNSFYELESAYADFYRSFVAKRAWHIGPLSLSNRELGEKARRGKKANIDEQECLKWLDSKTPGSVVYLSFGSGTNFTNDQLLEIAFGLEGSGQSFIWVVRKNENQGDNEEWLPEGFKERTTGKGLIIPGWAPQVLILDHKAIGGFVTHCGWNSAIEGIAAGLPMVTWPMGAEQFYNEKLLTKVLRIGVNVGATELVKKGKLISRAQVEKAVREVIGGEKAEERRLWAKKLGEMAKAAVEEGGSSYNDVNKFMEELNGRK | failed
9 | MKQRTLPAAFLLALSIASLAGCASPTVITLNDGREIQAVDTPKYDEDSGFYEFKQLDGKQTRINKDQVRTVKDLLEHHHHHH | failed
10 | MKQTPPLISFITICYNGLDDTCMLIESLRDTISSVSYEIIVVDNASRQDEASLIQERYPFVRTLRSEKNLGFSGGNNLGIQIAQGKYLFLINNDTYLTEDGLPALIERLESDPRIGAVSPKIRFAFPPQSIQFAGYTKLSRYTMRNKALGMGCPDDGTFDTPRPSAYLHGAALMLKREVIWKAGLMPEIYFLYYEELDWCTSMTRAGYQLWYEPRCTIFHKESQSTGRQSPLRTFYMMRNRMLYAWRNLPGMERCLAIAYQMLIVAPKDSLCFVLKGEPKLAKAVWHGVKGFWKLCLEHHHHHH | not failed
11 | MKRADFCIIGLGRFGMQVAHSLKENNFTLVLIDNDQHKTNTAAQEFDHVVCCDGSNLTALAELQLEEFSAVIVGVTNIEASIMICANLRELGQKNIIARAKNEVHNRVLRTMGIREALIPEKIVGKNLVIRLIHGMETEIINLGNDILFVRAPVNNKKLFNRTLGEINIREHTNANLISIMRNGKDVVFPLGPNTQIQPGDVITAVCQLSGVNQYLRYINPNDKNKYKASE | failed
12 | MKRAFAAVAATVCLFLLVQLGSLALVEPFMSAGFQAVEDPSDPTNSLLYIIAILVATGVMLAAMKFGVDRLLQGLVLFAAVFISFYVFTVVVPPVVAVAGLNLVAVALALALGVGLLVYPEWYVIDAAGIVMGAGAAGLFGISFGLLPALVLLVVLAVYDAISVYGTEHMLALASGAMDLRLPVIFVVPLTLSYSFLDADNPESLEDDTPESDAEAEPDEGDDVSTATGDAEPVDTMAEDADTDADSDADADDPAAAEAAPDEHADPFARDAFFIGLGDAVIPTILVASAAFFRPGGVELLSVPGIALTVPALGAMVGTIAGLLALMWFVMKGRAHAGLPLLNGGAIAGYLLGAAAVGIPVVEALGVAPYL | failed
13 | MKRANIVKLIVDKKTHEKLKELAIATAKCWNEVNWLRMQQFKKGERVDFSKTEKDVYEKYKQILKVNTQQVARKNAEDWRSFFSLIEEKKEGKLPRWFKPRPPGYWKDKIGKYKLIIIIRKDRYEVNEEKRIIYLKDFKLSLSFKGKLKWHGEQGRLEIIYNEARRIWYAHIPVEVQNDVKAEGKLKASIDLGIVNLATVYVEDGSWYIFKGGSVLSQYEYYSKRISIVQKTLARHKQRRSRKMKLLYEKRKRFLKHALNSMVRKIMEELKKKGVSKLIIGYPKEISKDHGNKLTVNFWNYGYIIRRFEEVGEELGIEVVEVDEAWTSKSCSLCGEAHHRGRIKRGLYRCPRMGKVINADLNGAINILHIPESLGAGSGGQLPVRDRGNGLKAQPAVYRWSNGVGWVSSPTSYEVMKMKAVNRKPMNRPKGTLAL | failed
14 | MKRDRNLTWHRTDALRPNLEGRQVAVIGGTGGIGRALSRHLASLDARVVVVGQTFRDADVPGIRFIQADLSLMHEAQRVAGLLPAQTLDLVIFTTGIFAAPQRQETTEGIERDLAVSYLNRLVMLRAIAPTLGTQRARPAMKPRVFIMGYPGSGQTGAPDDLNAEAPYKAMAAHMNTVAGNEMLVLDAALRYPQATFFGLNPGLIKTGIRDNFFGKGSVKSRIAETLIGWLTPTADTYAQRITPLLMSPDLEGHSGAMFNSKGQAILPSPGLGEAHIRKFMAASEALANRTGIHPIGQEDRP | failed
15 | MKREIQVSVFLTFITLAYYLLNSLALEFLGLGFISIPLTILLPASILFERERPNPISRVTYIFSMLWLVFLIYLLTGWALVQFIWFFLDLPCLKILAVSLAALSVSYGVFRARKIEVKRVEIPFPVEESLRFVQLSDIHLGTVRSAGFLKEVSEAVRRVEAAAVLITGDLLDGSRPVDSSIISSLETGAPIFFVSGNHDTYSGDFRSTVSDAGIMCIDQSVIEFEGIQIIGVGYSMERHSLPAILDLLEFDEDRPVLLLHHLPVDWEDARERGVDLQLSGHTHGGQFYPFNIIVGLMFPFLRGLYSDSGGFLYVSEGTGTWGPPVRLGSSCEITVIDLVPFKEI | failed
16 | MKRERSDFEESLKNIDIAKCLMILAQTSMVKQIGLNQHTESHTSNQFECKTCNKRFSSFQALGGHRASHKKPKLTVEQKDVKHLSNDYKGNHFHKCSICSQSFGTGQALGGHMRRHRSSMTVEPSFISPMIPSMPVLKRCGSSKRILSLDLNLTPLENDLEYIFGKTFVPKIDMKFVL | failed
17 | MKRFIIKSDRIGFSIWEETDLKEALELWGNSNVTKYITADGKMSIEDVKTRLKVEIEFYEKYKVQYWPIFLNETSENLGVCGLHPYNIKDSVFELGVHLREKYWGIGVAEKACNLVMRYAFENLQAKAIFVGHNPNNKASKKLIKKLGFTYTHDEFYEPTGLYHPSYLITCNEFIEVKNKLKGGKIIGKNK | not failed
18 | MKRFVLFLLFMCVCVQAYAEQDYFFRDFKSRDLPQKLHLDKKLSQTIQPCMQLNASKHYTSTGVREPDKCTKSFKKSALMSYDLALGYLVSKNKQYGLKAIEILNAWAKELQSVDTYQSEDNINFYMPYMNMAYWFVKKAFPSPEYEDFIKRMRQYSQSALNTNHGAWGILFDVSSALALDDNALLHNSANRWQEWVFKAIDENGVIASAITRSDTSDYHGGPTKGIKGIAYTNFALLALTISGELLFENGYDLWGSGAGKRLSVAYNKVATWILNPETFPYFQPNLIGVHNNAYFIILAKHYSSPSANELLKQGDLHEDGFRLKLRSP | failed
19 | MKRGNEENNHKTSSSSSTQRLSRRKISAGEKSGNVNIPLDLTVEILKKLPAKSLLRFQCVSKQWLSIISSRRDFIDSIVTRSLTQPPPRDIKLIFHHQVLYPGPHFFIFSSTYPQNTDKESLTTRASSYHYVRGLICCWSHCPTTVDIYNPTTRQYYTVPDTNRYQYIETCFFGYDPVENQYKVMVLPKYYMEESPCQVFTVGDPIEKPWRDIQGIGVHFLLKDAVCINGVIYYQATNEYGSTYFLVSFDVRSEKFNHVKAPKILTDHPCTLINYQGKLGLIMCCKKGLEIWVMEDAEKKQD | failed
20 | MKRIFKGHSPWGFLSFRHAENQEPPRYLTGYTPVKRIHKAASMGDIPQVQKLLEFGNIDVNITDRKKRTALHYACAHGQSEMVSLLLWYDCNIEARDREESTALIKATQRQHEICVKILLENGADPNAVDAYHITALHYAVYNNDTAIAAKLLSFNANTEIKTKNGYTPLILAVLENKQEMVELLLRAAANINALDNCKRSALIHAVRIQSKNMISLLLQQGADPSLVDIYGATAQSYAVFETFQVLSQSPGPSCPELTTKEDKQSFDTKDGCIPHSHHIKEDNQEMEENTDDKLGSPAALKHKEKELENCEECNSEADTYPESYSKTSSAQRRSNSEPTEVDDEPSFSTKPPVAQSPMFTESSLWVGYPADWPEPVKFSRQPAVYNPTEWREDMESRSVPREESKQQVAIFPEGKEADVQTQELLSRVFKESGDNDPNLPAIENTKDELVSLLAPLEENKPQMTEFPLIEAAKFQTDVQLDRCPCFLLSLRNSLSGTLD | failed
21 | MKRIKLVRHGESAANAGQASRNHESIPLTHRGLEQAITVARSFTKAPELIVASPFSRAQATAQETSAIFPTVAIETWPIQEFTYLAPARCVDTTVAQRRDWVDAYWARAEPAFCDGEGAESFLDFVYRAQAFLKQLAGHSAANTVVFSHGQFLNAVAWLLERRPQSLDRHAMADWRRYEIENHIPNGCGFYLSQSSTGAEWVLGHRNY | failed
